Laboratory results taken from article PMC13588620 (eLife, 2026).

Molecular target: T1, recombinant SARS-CoV-2 nucleocapsid protein (Severe acute respiratory syndrome …, UniProt P0DTC9)
T1 construct: SARS-CoV-2 nucleocapsid protein; also called NP; N-protein
Experiment: ELISA; peptide competition ELISA: plate coated with 0.1 ug/ml recombinant SARS-CoV-2 NP overnight at 4°C; 40 μl mBG17 pre-incubated 1 h at room temperature with 40 μg (approximately 30 nMol) of a single peptide fragment, then applied to the plate in triplicate; HRP goat anti-mouse detection; percent of no-peptide control
Conditions: both partners purified

B1: mBG17 anti-SARS-CoV-2 nucleocapsid protein mouse monoclonal antibody (recombinant) (antibody, V domains shown)
VH: EVKLEESGGGLVQPGGSMKFSCVASGFTFSDYWMNWVRQSPDKGLEWVAEIRLKSNNYATHYAASVKGRFTISRDDSKSSVYLQMNNLRAEDSGIYYCTRSAMDYWGQGTSVTVSS
VL: DIVMSQSPSSLAVSVGEKITMSCKSSQSLLYTSDQKNYLAWFQQKPGQSPKLLIFWASTRDSGVPDRFTGSGSGTDFTLTISSVKAEDLAVYYCQQFYNYPRTFGGGTKLEI
notes: VH of mBG17; VL of mBG17; also called recombinant mBG17 antibody; source: recombinant antibody produced in 293F cells (as described in Terry et al., 2021)
binding result: binds
